Measurements as given in the RNAGym collection of RNA variant scans (doi:10.7554/elife.90254).

B1: LINE1-full (parent)
chain: UACGUAGGUGGUUUUCCCCUGAUAGUGCUAAGGGGGCCUGGAAGUUUGGACUGGGCAGAGCUCAACACAGCGUGGCAAAGUGGCUGUGGCUAGACUGCCUCUCUGGAUUCCUCGUCACUCAGCAGGGCAUCUCUGAGAGAAAUGCC

Variants of: B1
Experiment: self-cleavage, relative activity (ratio to wild type); higher = more cleavage; in vitro, sequencing; the parent is a self-cleaving ribozyme

Going from UACGUAGGUGGUUUUCCCCUGAUAGUGCUAAGGGGGCCUGAAAGUUUGGACUGGGCAGAGCUCAACACAGCGUGGCAAAGUGGCUGUGGCUAGACUGCCUCUCUGGAUUCCUCGUCACUCAGCAGGGCAUCCCUGAGAGAAAUGCC [G41A U132C] to UACGUAGGUGGUUUUCCCCUGAUAGUGCUAAGGGGGCCUGCAAGUUUGGACUGGGCAGAGCUCAACACAGCGUGGCAAAGUGGCUGUGGCUAGACUGCCUCUCUGGAUUCCUCGUCACUCAGCAGGGCAUCUCUGAGAGAAAUGCC [G41C], the self-cleavage falls from 1.25 to 1.22.

Going from UACGUAGGUGGUUUUCCCCUGAUAGUGCUAAGGGGGCCUGCAAGUAUGGACUGGGCAGAGCUCAACACAGCGUGGCAAAGUGGCUGUGGCUAGACUGCCUCUCUGGAUUCCUCGUCACUCAGCAGGGCAUCUCUGAGAGAAAUGCC [G41C U46A] to UACGUAGGUGGUUUUCCCCUGAUAGUGCUAAGGGGGCCUGCAAGUUUGGACUGGGCAGAGCUCAACACAGCGUGGCAAAGUGGCUGUGGCUAGACUGCCUCUCUGGAUUCCUCGACACUCAGCAGGGCAUCUCUGAGAGAAAUGCC [G41C U115A], the self-cleavage rises from 0.25 to 1.88.

First: UACGUAGGUGGUUUUCCCCUGAUAGUGCUAAGGGGGCCUGCAAGUUUGGACUGGGCAGAGCUCAACACAGCGUGGCAAAGUGGCUGUGGCUAGACUGCCUCUCUGGAUUCCUCGUCACUCAGCAGGGCAUCACUGAGAGAAAUGCC [G41C U132A]
Second: UACGUAGGUGGUUUUCCCCUGAUAGUGCUAAGGGGGCCUGCAAGUUUGGACUGGGCAGAGCUCAACACAGCGUGGCAAAGUGGCUGUGGCUAGACUGCCUCUCUGGAUUCCUCGUCACUCAGCAGGGCAUCUCCGAGAGAAAUGCC [G41C U134C]
The self-cleavage of the first is lower: 1.35 for the first, 1.76 for the second.

Going from UACGUAGGUGGUUUUCCCCUGAUAGUGCUAAGGGGGCCUGUAAGUUUGGACUGGGCAGAGCUCAACACAGCGUGGCAAAGUGGCUGUGGCUAGACUGCCUCUCUGGAUUCCUCGUCACUCAGCAGGGCAUCUCUGAGAGAAAUGCC [G41U] to UACGUAGGUGGUUUUCCCCUGAUAGUGCUAAGGGGGCCUGUAAGUUUGGACUGGGCAGAGCUCAACACAGCGUGGCAAAGUGGCUGUGGCUAGGCUGCCUCUCUGGAUUCCUCGUCACUCAGCAGGGCAUCUCUGAGAGAAAUGCC [G41U A94G], the self-cleavage falls from 1.19 to 0.05.

Compared with UACGUAGGUGGUUUUCCCCUGAUAGUGCUAAGGGGGCCUGUAAGUUUGGACUGGGCAGAGCUCAACACAGCGUGGCAAAGUGGCUGUGGCUAGACUGCCUCUCUGGAUUCCUCGUCACUCGGCAGGGCAUCUCUGAGAGAAAUGCC [G41U A121G], UACGUAGGUGGUUUUCCCCUGAUAGUGCUAAGGGGGCCUGUAAGUUUGGACUGGGCAGAGCUCAACACAGCGUGGCAAAGUGGCUGUGGCUAGACUGCCUCUCUGGAUUCCUCGUCACUCAGCAGGGCAUCUCUGAGAGGAAUGCC [G41U A140G] is lower in self-cleavage: 1.53 for the first, 1.14 for the second.

First: UACGUAGGUGGUUUUCCCCUGAUAGUGCUAAGGGGGCCUGUAAGUUUGGACUGGGCAGAGCUCAACACAGCGUGGCAAAGUGGCUGUGGCUAGACUGCCUCUAUGGAUUCCUCGUCACUCAGCAGGGCAUCUCUGAGAGAAAUGCC [G41U C103A]
Second: UACGUAGGUGGUUUUCCCCUGAUAGUGCUAAGGGGGCCUGUAAGUUUGGACUGGGCAGAGCUCAACACAGCGUGGCAAAGUGGCUGUGGCUAGACUGCCUCUCUGGAUUCCUCGUCACUCAGCAGGGCAUCUCUGAGAGAAAUGUC [G41U C145U]
The self-cleavage of the first is higher: 1.11 for the first, 0.75 for the second.

First: UACGUAGGUGGUUUUCCCCUGAUAGUGCUAAGGGGGCCUGUAAGAUUGGACUGGGCAGAGCUCAACACAGCGUGGCAAAGUGGCUGUGGCUAGACUGCCUCUCUGGAUUCCUCGUCACUCAGCAGGGCAUCUCUGAGAGAAAUGCC [G41U U45A]
Second: UACGUAGGUGGUUUUCCCCUGAUAGUGCUAAGGGGGCCUGUAAGUUUGGACUGGGCAGAGCACAACACAGCGUGGCAAAGUGGCUGUGGCUAGACUGCCUCUCUGGAUUCCUCGUCACUCAGCAGGGCAUCUCUGAGAGAAAUGCC [G41U U62A]
The self-cleavage of the first is higher: 1.14 for the first, 0.04 for the second.

Going from UACGUAGGUGGUUUUCCCCUGAUAGUGCUAAGGGGGCCUGUAAGUUUGGACUGGGCAGAGCCCAACACAGCGUGGCAAAGUGGCUGUGGCUAGACUGCCUCUCUGGAUUCCUCGUCACUCAGCAGGGCAUCUCUGAGAGAAAUGCC [G41U U62C] to UACGUAGGUGGUUUUCCCCUGAUAGUGCUAAGGGGGCCUGUAAGUUUGGACUGGGCAGAGCUCAACACAGCGUGGCAAAGUGGCUGUGGCUAGACUGCCCCUCUGGAUUCCUCGUCACUCAGCAGGGCAUCUCUGAGAGAAAUGCC [G41U U100C], the self-cleavage rises from 0.04 to 1.28.

First: UACGUAGGUGGUUUUCCCCUGAUAGUGCUAAGGGGGCCUGUAAGUUUGGACUGGGCAGAGCUCAACACAGCGUGGCAAAGUGGCUGUGGCUAGACUGCCUCUCUGGAUUCCUCGACACUCAGCAGGGCAUCUCUGAGAGAAAUGCC [G41U U115A]
Second: UACGUAGGUGGUUUUCCCCUGAUAGUGCUAAGGGGGCCUGUAAGUUUGGACUGGGCAGAGCUCAACACAGCGUGGCAAAGUGGCUGUGGCUAGACUGCCUCUCUGGAUUCCUCGUCACUCAGCAGGGCAUCUCUGAGAGAAACGCC [G41U U143C]
The self-cleavage of the first is lower: 1.29 for the first, 1.47 for the second.

Going from UACGUAGGUGGUUUUCCCCUGAUAGUGCUAAGGGGGCCUGGCAGUUUGGACUGGGCAGAGCUCAACACAGCGUGGCAAAGUGGCUGUGGCUAGACUGCCUCUCUGGAUUCCUCGUCACUCAGCAGGGCAUCUCUGAGAGAAAUGCC [A42C] to UACGUAGGUGGUUUUCCCCUGAUAGUGCUAAGGGGGCCUGGCGGUUUGGACUGGGCAGAGCUCAACACAGCGUGGCAAAGUGGCUGUGGCUAGACUGCCUCUCUGGAUUCCUCGUCACUCAGCAGGGCAUCUCUGAGAGAAAUGCC [A42C A43G], the self-cleavage rises from 0.92 to 1.13.

First: UACGUAGGUGGUUUUCCCCUGAUAGUGCUAAGGGGGCCUGGCUGUUUGGACUGGGCAGAGCUCAACACAGCGUGGCAAAGUGGCUGUGGCUAGACUGCCUCUCUGGAUUCCUCGUCACUCAGCAGGGCAUCUCUGAGAGAAAUGCC [A42C A43U]
Second: UACGUAGGUGGUUUUCCCCUGAUAGUGCUAAGGGGGCCUGGCAGUUUGGACUGGGCAGGGCUCAACACAGCGUGGCAAAGUGGCUGUGGCUAGACUGCCUCUCUGGAUUCCUCGUCACUCAGCAGGGCAUCUCUGAGAGAAAUGCC [A42C A59G]
The self-cleavage of the first is higher: 0.72 for the first, 0.45 for the second.

Compared with UACGUAGGUGGUUUUCCCCUGAUAGUGCUAAGGGGGCCUGGCAGUUUGGACUGGGCAGAGCUCAACACAGCGUGGCAAAGUGGCUGUGGCUCGACUGCCUCUCUGGAUUCCUCGUCACUCAGCAGGGCAUCUCUGAGAGAAAUGCC [A42C A92C], UACGUAGGUGGUUUUCCCCUGAUAGUGCUAAGGGGGCCUGGCAGUUUGGACUGGGCAGAGCUCAACACAGCGUGGCAAAGUGGCUGUGGCUAGGCUGCCUCUCUGGAUUCCUCGUCACUCAGCAGGGCAUCUCUGAGAGAAAUGCC [A42C A94G] is higher in self-cleavage: 0 for the first, 0.28 for the second.

First: UACGUAGGUGGUUUUCCCCUGAUAGUGCUAAGGGGGCCUGGCAGUUUGGACUGGGCAGAGCUCAACACAGCGUGGCAAAGUGGCUGUGGCUAGACUGCCUCUCUGGAUUCCUCGUCACUCAGCGGGGCAUCUCUGAGAGAAAUGCC [A42C A124G]
Second: UACGUAGGUGGUUUUCCCCUGAUAGUGCUAAGGGGGCCUGGCAGUUUGGACUGGGCAGAGCUCAACACAGCGUGGCAAAGUGGCUGUGGCUAGACUGCCUCUCUGGAUUCCUCGUCACUCAGCAGGGCAUCUCUGAGGGAAAUGCC [A42C A138G]
The self-cleavage of the first is lower: 0.79 for the first, 1.05 for the second.

First: UACGUAGGUGGUUUUCCCCUGAUAGUGCUAAGGGGGCCUGGCAGUUUGGACUAGGCAGAGCUCAACACAGCGUGGCAAAGUGGCUGUGGCUAGACUGCCUCUCUGGAUUCCUCGUCACUCAGCAGGGCAUCUCUGAGAGAAAUGCC [A42C G53A]
Second: UACGUAGGUGGUUUUCCCCUGAUAGUGCUAAGGGGGCCUGGCAGUUUGGACUGGGCAGAGCUCAACACAGCGUGGCAAAGUGGCUGUGGCUAAACUGCCUCUCUGGAUUCCUCGUCACUCAGCAGGGCAUCUCUGAGAGAAAUGCC [A42C G93A]
The self-cleavage of the first is higher: 1.22 for the first, 0.03 for the second.

Compared with UACGUAGGUGGUUUUCCCCUGAUAGUGCUAAGGGGGCCUGGCAGUUUGGACUGGGCAGAGCUCAACACAGCGUGGCAAAGUGGCUGUGGCUAGACUCCCUCUCUGGAUUCCUCGUCACUCAGCAGGGCAUCUCUGAGAGAAAUGCC [A42C G97C], UACGUAGGUGGUUUUCCCCUGAUAGUGCUAAGGGGGCCUGGCAGUUUGGACUGGGCAGAGCUCAACACAGCGUGGCAAAGUGGCUGUGGCUAGACUGCCUCUCUGGACUCCUCGUCACUCAGCAGGGCAUCUCUGAGAGAAAUGCC [A42C U108C] is higher in self-cleavage: 0.11 for the first, 0.8 for the second.

Compared with UACGUAGGUGGUUUUCCCCUGAUAGUGCUAAGGGGGCCUGGCAGUUUGGACUGGGCAGAGCUCAACACAGCGUGGCAAAGUGGCUGUGGCUAGACUGCCUCUCUGGAUUCCUCGUCACUCAGCAGGGCAUCUCAGAGAGAAAUGCC [A42C U134A], UACGUAGGUGGUUUUCCCCUGAUAGUGCUAAGGGGGCCUGGGAGUUUGGACUGGGCAGAGCUCAACACAGCGUGGCAAAGUGGCUGUGGCUAGACUGCCUCUCUGGAUUCCUCGUCACUCAGCAGGGCAUCUCUGAGAGAAAUGCC [A42G] is higher in self-cleavage: 0.83 for the first, 1.38 for the second.

Going from UACGUAGGUGGUUUUCCCCUGAUAGUGCUAAGGGGGCCUGGGGGUUUGGACUGGGCAGAGCUCAACACAGCGUGGCAAAGUGGCUGUGGCUAGACUGCCUCUCUGGAUUCCUCGUCACUCAGCAGGGCAUCUCUGAGAGAAAUGCC [A42G A43G] to UACGUAGGUGGUUUUCCCCUGAUAGUGCUAAGGGGGCCUGGGAGUUUGGACUGGGCAGGGCUCAACACAGCGUGGCAAAGUGGCUGUGGCUAGACUGCCUCUCUGGAUUCCUCGUCACUCAGCAGGGCAUCUCUGAGAGAAAUGCC [A42G A59G], the self-cleavage falls from 1.17 to 0.11.

First: UACGUAGGUGGUUUUCCCCUGAUAGUGCUAAGGGGGCCUGGGAGUUUGGACUGGGCAGAGCUCGACACAGCGUGGCAAAGUGGCUGUGGCUAGACUGCCUCUCUGGAUUCCUCGUCACUCAGCAGGGCAUCUCUGAGAGAAAUGCC [A42G A64G]
Second: UACGUAGGUGGUUUUCCCCUGAUAGUGCUAAGGGGGCCUGGGAGUUUGGACUGGGCAGAGCUCAUCACAGCGUGGCAAAGUGGCUGUGGCUAGACUGCCUCUCUGGAUUCCUCGUCACUCAGCAGGGCAUCUCUGAGAGAAAUGCC [A42G A65U]
The self-cleavage of the first is lower: 0.28 for the first, 0.32 for the second.

Compared with UACGUAGGUGGUUUUCCCCUGAUAGUGCUAAGGGGGCCUGGGAGUUUGGACUGGGCAGAGCUCAACUCAGCGUGGCAAAGUGGCUGUGGCUAGACUGCCUCUCUGGAUUCCUCGUCACUCAGCAGGGCAUCUCUGAGAGAAAUGCC [A42G A67U], UACGUAGGUGGUUUUCCCCUGAUAGUGCUAAGGGGGCCUGGGAGUUUGGACUGGGCAGAGCUCAACACCGCGUGGCAAAGUGGCUGUGGCUAGACUGCCUCUCUGGAUUCCUCGUCACUCAGCAGGGCAUCUCUGAGAGAAAUGCC [A42G A69C] is lower in self-cleavage: 0.17 for the first, 0.06 for the second.

For UACGUAGGUGGUUUUCCCCUGAUAGUGCUAAGGGGGCCUGGGAGUUUGGACUGGGCAGAGCUCAACACUGCGUGGCAAAGUGGCUGUGGCUAGACUGCCUCUCUGGAUUCCUCGUCACUCAGCAGGGCAUCUCUGAGAGAAAUGCC [A42G A69U], the self-cleavage was 0.04.
